Here are results for three sequences from patent US12043852.

This data set addresses omega-dCas9 clone 4 (evolved SpCas9) D10A,H840A,E1219V; residues I122 and D182 also mutated, substitutions not stated (Streptococcus pyogenes) (UniProt Q99ZW2). Put plainly: cell_activity. The settings on record: E. coli activation.

In turn, “GGAGCCCACCGAGUACCUGG / GGAGCCCACCGAGTACCTGGAGG / CCTCCAGGTACTCGGTGGGCTCC [Doench 2 sgRNA (spacer) ; Doench 2 target, AGG PAM]” showed an activity (luciferase activity) (PAM AGG) of 238. “GGAGCCCACCGAGUACCUGG / GGAGCCCACCGAGTACCTGGGAG / CTCCCAGGTACTCGGTGGGCTCC [Doench 2 sgRNA (spacer) ; Doench 2 target, GAG PAM]”: the activity (luciferase activity) (PAM GAG) was found to be 186. “GGAGCCCACCGAGUACCUGG / GGAGCCCACCGAGTACCTGGGTG / CACCCAGGTACTCGGTGGGCTCC [Doench 2 sgRNA (spacer) ; Doench 2 target, GTG PAM]” showed an activity (luciferase activity) (PAM GTG) of 120.
